Measurements published in patent publication US20240018226A1.

Molecular target: pHrodo-labeled 4RON human tau P301L soluble oligomer (human), P10636
Assay: cell-based or functional assay

pHrodo-labeled 4RON human tau P301L soluble oligomer (human), P10636, sequence (P10636 other isoform, or with tags, fused parts or gaps P301L P301L): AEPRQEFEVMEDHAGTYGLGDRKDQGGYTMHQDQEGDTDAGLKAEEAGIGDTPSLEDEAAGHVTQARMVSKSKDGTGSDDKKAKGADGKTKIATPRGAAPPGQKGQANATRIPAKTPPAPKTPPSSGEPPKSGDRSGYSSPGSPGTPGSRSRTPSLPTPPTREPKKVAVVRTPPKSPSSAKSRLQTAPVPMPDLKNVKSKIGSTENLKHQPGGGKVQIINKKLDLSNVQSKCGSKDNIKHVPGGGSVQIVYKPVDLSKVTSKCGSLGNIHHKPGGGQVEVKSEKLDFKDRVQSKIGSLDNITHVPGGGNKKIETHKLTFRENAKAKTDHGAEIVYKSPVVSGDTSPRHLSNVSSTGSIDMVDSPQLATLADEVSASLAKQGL

- IC50 of inhibition of tau internalization into B103 neuroblastoma cells (pHrodo Texas Red mean fluorescence intensity, FACS): 9 nM
B1: mouse 3D6 (antibody, V domains shown)
VH: EVQLQQSGADLVRPGALVKLSCKASGFNIKDYYLHWVRQRPEQGLEWIGWIDPENGDTVYDPKFQGKATITADTSSNTAYLQLGSLTSEDTAVYFCSTLDFWGQGTTLTVSS
VL: not shown
modifications: here or on the partner: labeled with pHrodo Red succinimidyl ester (sites not given)
